Laboratory results published in publication PMC13397619.

B1: NLV2 TCR alpha chain (CDR3α only) (parent)
chain: AGPMKTSYDKVI
partner: MLVPMVATV

Variants of: B1
Assay: T-Switch: Jurkat TCRβ−/− cells expressing a CDR3 saturation-mutagenesis library, stained with two peptide-HLA-A*02:01 tetramers (original and novel peptide) plus anti-CD3, FACS-sorted into four gates, gDNA sequenced
Settings: with HLA-A*02:01 with peptide … (NLV 3-1, the novel peptide), tetramers 1 µg/mL, 30 min on ice, SP, DP and SW gates expanded about 10 days between rounds ('two to three rounds of selection' in the Methods), gate SW: higher = more of the variant in the gate that binds the novel peptide and not the original one = switched binding. Fold enrichment of the CDR3 variant in one FACS gate of a two-tetramer stain, unresolved parent, parent is a CDR3 fragment, scale: fold enrichment, numbering: sequential-on-construct, sequence starts at 1

Variant	enrichment
[…] (CDR3 as printed); D9V derived by comparing it with the table's wild-type CDR3 AGPMKTSYDKVI	0
[…] (CDR3 as printed); D9W derived by comparing it with the table's wild-type CDR3 AGPMKTSYDKVI	0
[…] (CDR3 as printed); D9Y derived by comparing it with the table's wild-type CDR3 AGPMKTSYDKVI	0
[…] (CDR3 as printed); G2A derived by comparing it with the table's wild-type CDR3 AGPMKTSYDKVI	0
[…] (CDR3 as printed); G2C derived by comparing it with the table's wild-type CDR3 AGPMKTSYDKVI	0
[…] (CDR3 as printed); G2D derived by comparing it with the table's wild-type CDR3 AGPMKTSYDKVI	0
[…] (CDR3 as printed); G2E derived by comparing it with the table's wild-type CDR3 AGPMKTSYDKVI	0
[…] (CDR3 as printed); G2F derived by comparing it with the table's wild-type CDR3 AGPMKTSYDKVI	0
[…] (CDR3 as printed); G2H derived by comparing it with the table's wild-type CDR3 AGPMKTSYDKVI	0
[…] (CDR3 as printed); G2I derived by comparing it with the table's wild-type CDR3 AGPMKTSYDKVI	0
[…] (CDR3 as printed); G2K derived by comparing it with the table's wild-type CDR3 AGPMKTSYDKVI	0
[…] (CDR3 as printed); G2L derived by comparing it with the table's wild-type CDR3 AGPMKTSYDKVI	0
[…] (CDR3 as printed); G2M derived by comparing it with the table's wild-type CDR3 AGPMKTSYDKVI	0
[…] (CDR3 as printed); G2N derived by comparing it with the table's wild-type CDR3 AGPMKTSYDKVI	0
[…] (CDR3 as printed); G2P derived by comparing it with the table's wild-type CDR3 AGPMKTSYDKVI	0
[…] (CDR3 as printed); G2Q derived by comparing it with the table's wild-type CDR3 AGPMKTSYDKVI	0
[…] (CDR3 as printed); G2R derived by comparing it with the table's wild-type CDR3 AGPMKTSYDKVI	0
[…] (CDR3 as printed); G2S derived by comparing it with the table's wild-type CDR3 AGPMKTSYDKVI	0
[…] (CDR3 as printed); G2T derived by comparing it with the table's wild-type CDR3 AGPMKTSYDKVI	0
[…] (CDR3 as printed); G2V derived by comparing it with the table's wild-type CDR3 AGPMKTSYDKVI	0
[…] (CDR3 as printed); G2W derived by comparing it with the table's wild-type CDR3 AGPMKTSYDKVI	0

Variant	enrichment
[…] (CDR3 as printed); G2Y derived by comparing it with the table's wild-type CDR3 AGPMKTSYDKVI	0
[…] (CDR3 as printed); I12A derived by comparing it with the table's wild-type CDR3 AGPMKTSYDKVI	0
[…] (CDR3 as printed); I12C derived by comparing it with the table's wild-type CDR3 AGPMKTSYDKVI	0
[…] (CDR3 as printed); I12D derived by comparing it with the table's wild-type CDR3 AGPMKTSYDKVI	0
[…] (CDR3 as printed); I12E derived by comparing it with the table's wild-type CDR3 AGPMKTSYDKVI	0
[…] (CDR3 as printed); I12F derived by comparing it with the table's wild-type CDR3 AGPMKTSYDKVI	0
[…] (CDR3 as printed); I12G derived by comparing it with the table's wild-type CDR3 AGPMKTSYDKVI	0
[…] (CDR3 as printed); I12H derived by comparing it with the table's wild-type CDR3 AGPMKTSYDKVI	0
[…] (CDR3 as printed); I12K derived by comparing it with the table's wild-type CDR3 AGPMKTSYDKVI	0
[…] (CDR3 as printed); I12L derived by comparing it with the table's wild-type CDR3 AGPMKTSYDKVI	0
[…] (CDR3 as printed); I12M derived by comparing it with the table's wild-type CDR3 AGPMKTSYDKVI	0
[…] (CDR3 as printed); I12N derived by comparing it with the table's wild-type CDR3 AGPMKTSYDKVI	0
[…] (CDR3 as printed); I12P derived by comparing it with the table's wild-type CDR3 AGPMKTSYDKVI	0
[…] (CDR3 as printed); I12Q derived by comparing it with the table's wild-type CDR3 AGPMKTSYDKVI	0
[…] (CDR3 as printed); I12R derived by comparing it with the table's wild-type CDR3 AGPMKTSYDKVI	0
[…] (CDR3 as printed); I12S derived by comparing it with the table's wild-type CDR3 AGPMKTSYDKVI	0
[…] (CDR3 as printed); I12T derived by comparing it with the table's wild-type CDR3 AGPMKTSYDKVI	0
[…] (CDR3 as printed); I12V derived by comparing it with the table's wild-type CDR3 AGPMKTSYDKVI	0
[…] (CDR3 as printed); I12W derived by comparing it with the table's wild-type CDR3 AGPMKTSYDKVI	0
[…] (CDR3 as printed); I12Y derived by comparing it with the table's wild-type CDR3 AGPMKTSYDKVI	0
[…] (CDR3 as printed); K5A derived by comparing it with the table's wild-type CDR3 AGPMKTSYDKVI	0

Variant	enrichment
[…] (CDR3 as printed); K5C derived by comparing it with the table's wild-type CDR3 AGPMKTSYDKVI	0
[…] (CDR3 as printed); K5D derived by comparing it with the table's wild-type CDR3 AGPMKTSYDKVI	0
[…] (CDR3 as printed); K5E derived by comparing it with the table's wild-type CDR3 AGPMKTSYDKVI	0
[…] (CDR3 as printed); K5F derived by comparing it with the table's wild-type CDR3 AGPMKTSYDKVI	0
[…] (CDR3 as printed); K5G derived by comparing it with the table's wild-type CDR3 AGPMKTSYDKVI	0
[…] (CDR3 as printed); K5H derived by comparing it with the table's wild-type CDR3 AGPMKTSYDKVI	0
[…] (CDR3 as printed); K5I derived by comparing it with the table's wild-type CDR3 AGPMKTSYDKVI	0
[…] (CDR3 as printed); K5L derived by comparing it with the table's wild-type CDR3 AGPMKTSYDKVI	0
[…] (CDR3 as printed); K5M derived by comparing it with the table's wild-type CDR3 AGPMKTSYDKVI	0
[…] (CDR3 as printed); K5N derived by comparing it with the table's wild-type CDR3 AGPMKTSYDKVI	0
[…] (CDR3 as printed); K5P derived by comparing it with the table's wild-type CDR3 AGPMKTSYDKVI	0
[…] (CDR3 as printed); K5Q derived by comparing it with the table's wild-type CDR3 AGPMKTSYDKVI	0
[…] (CDR3 as printed); K5R derived by comparing it with the table's wild-type CDR3 AGPMKTSYDKVI	0
[…] (CDR3 as printed); K5S derived by comparing it with the table's wild-type CDR3 AGPMKTSYDKVI	0
[…] (CDR3 as printed); K5T derived by comparing it with the table's wild-type CDR3 AGPMKTSYDKVI	0
[…] (CDR3 as printed); K5V derived by comparing it with the table's wild-type CDR3 AGPMKTSYDKVI	0
[…] (CDR3 as printed); K5W derived by comparing it with the table's wild-type CDR3 AGPMKTSYDKVI	0
[…] (CDR3 as printed); K5Y derived by comparing it with the table's wild-type CDR3 AGPMKTSYDKVI	0
[…] (CDR3 as printed); K10A derived by comparing it with the table's wild-type CDR3 AGPMKTSYDKVI	0
[…] (CDR3 as printed); K10C derived by comparing it with the table's wild-type CDR3 AGPMKTSYDKVI	0
[…] (CDR3 as printed); K10D derived by comparing it with the table's wild-type CDR3 AGPMKTSYDKVI	0

Variant	enrichment
[…] (CDR3 as printed); K10E derived by comparing it with the table's wild-type CDR3 AGPMKTSYDKVI	0.402
[…] (CDR3 as printed); K10F derived by comparing it with the table's wild-type CDR3 AGPMKTSYDKVI	0
[…] (CDR3 as printed); K10G derived by comparing it with the table's wild-type CDR3 AGPMKTSYDKVI	0
[…] (CDR3 as printed); K10H derived by comparing it with the table's wild-type CDR3 AGPMKTSYDKVI	0
[…] (CDR3 as printed); K10I derived by comparing it with the table's wild-type CDR3 AGPMKTSYDKVI	0
[…] (CDR3 as printed); K10L derived by comparing it with the table's wild-type CDR3 AGPMKTSYDKVI	0
[…] (CDR3 as printed); K10M derived by comparing it with the table's wild-type CDR3 AGPMKTSYDKVI	0
[…] (CDR3 as printed); K10N derived by comparing it with the table's wild-type CDR3 AGPMKTSYDKVI	0
[…] (CDR3 as printed); K10P derived by comparing it with the table's wild-type CDR3 AGPMKTSYDKVI	0
[…] (CDR3 as printed); K10Q derived by comparing it with the table's wild-type CDR3 AGPMKTSYDKVI	0
[…] (CDR3 as printed); K10R derived by comparing it with the table's wild-type CDR3 AGPMKTSYDKVI	0
[…] (CDR3 as printed); K10S derived by comparing it with the table's wild-type CDR3 AGPMKTSYDKVI	1.59
[…] (CDR3 as printed); K10T derived by comparing it with the table's wild-type CDR3 AGPMKTSYDKVI	0
[…] (CDR3 as printed); K10V derived by comparing it with the table's wild-type CDR3 AGPMKTSYDKVI	0
[…] (CDR3 as printed); K10W derived by comparing it with the table's wild-type CDR3 AGPMKTSYDKVI	0
[…] (CDR3 as printed); K10Y derived by comparing it with the table's wild-type CDR3 AGPMKTSYDKVI	0
[…] (CDR3 as printed); M4A derived by comparing it with the table's wild-type CDR3 AGPMKTSYDKVI	0
[…] (CDR3 as printed); M4C derived by comparing it with the table's wild-type CDR3 AGPMKTSYDKVI	0
[…] (CDR3 as printed); M4D derived by comparing it with the table's wild-type CDR3 AGPMKTSYDKVI	0
[…] (CDR3 as printed); M4E derived by comparing it with the table's wild-type CDR3 AGPMKTSYDKVI	0
[…] (CDR3 as printed); M4F derived by comparing it with the table's wild-type CDR3 AGPMKTSYDKVI	0
